Measurements as given in patent publication US20200209227A1.

Legend:
Calmodulin [1] = test: BSI; molar refractometry; row repeated for a second PDB structure used in the model
Calmodulin [2] = test: BSI; molar refractometry from the experimental phase shift at Bmax
Calmodulin [3] = test: BSI, free-solution binding signal
Calmodulin [4] = test: BSI, free-solution binding signal; row repeated for a second PDB structure used in the model
Calmodulin [5] = test: BSI, calmodulin-calcineurin assay, free solution

With Calcineurin (enzyme) the Experimental Chi (RIU/M) (Calmodulin [1]) was 46100 RIU/M, the Experimental Chi (RIU/M) (Calmodulin [2]) was 46100 RIU/M and the BSI ΔRIU (Calmodulin [3]) was 0.00049 RIU. It also gave a BSI ΔRIU (Calmodulin [4]) of 0.00049 RIU and a FreeSRF (binding) signal ΔRIU (Calmodulin [5]) of 0.000441 RIU.
